Data on 16 sequences can be found in the supplement of paper PMC9170038.

The data set deals with MS2 coat protein. Description: apparent KD of MS2 coat protein; higher = weaker reporter binding. The following applies: Eterna round: R107. The procedure: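 RNA-MaP round R107: designed RNA switches with theophylline, tryptophan, arginine or FMN aptamers are transcribed on-chip within common flanks. They are titrated with SNAP-549-labelled MS2 coat protein in RNA-MaP buffer (100 mM Tris pH 7.5, 80 mM KCl, 4 mM MgCl2), without ligand or with the indicated ligand. Median apparent KD per design.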

Setting [1] is: input ligand: theophylline 20 uM.
The mark [2] stands for this setting: input ligand: tryptophan 2.4 mM.
Where [3] appears, read: input ligand: theophylline 2 mM.

Turning to “ACAUGAGGAUCACCCAUGUAGUGGCACGAUACCAGCUGAUCCCGUGGCCCUUGGCAGCGUCCGGUGUGGUGCGCCGGGUUGGAGC [BBBMULLIN]”, the “apparent KD of MS2 coat protein” value reads like this: (input ligand: arginine 13.2 mM) 38 nM; under setting [1], 77.4 nM; under setting [2], 48.9 nM.

With “ACAUGAGGAUCACCCAUGUCAGGGCACGAUACCAGCUGAUCCGGUGGCCCUUGGCAGCGUGACGAGUGGUCAUGAGGAUCACACG [?fmullin]”, the “apparent KD of MS2 coat protein” value runs as follows: (input ligand: arginine 13.2 mM) 75.8 nM; (input ligand: none) 128 nM; under setting [1], 176 nM; under setting [3], 158 nM; under setting [2], 130 nM.

Regarding “ACAUGAGGAUCACCCAUGUCAGGGCACGAUACCAGCUGAUCCGGUGGCCCUUGGCAGCGUGACGUUUGGUCCCGCGGAUCACACG [xxmullin]”, the “apparent KD of MS2 coat protein” value runs as follows: (input ligand: arginine 13.2 mM) 92.4 nM; (input ligand: none) 326 nM; under setting [1], 262 nM; under setting [3], 334 nM; under setting [2], 404 nM.

For the sequence “ACAUGAGGAUCACCCAUGUGAGAUAGGGAAGGAGCGCAGGAGGAUGCAGGUAGGUCGCCCACAUGAGGAUCACCCGUGUCUGGAG [#11 Exclusion - Arginine A]”, the “apparent KD of MS2 coat protein” value came to 33.2 nM (input ligand: arginine 13.2 mM); 43.4 nM (input ligand: none); 33 nM under setting [1]; 62.4 nM under setting [3]; 33.1 nM under setting [2].

With “ACAUGAGGAUCACCCAUGUGCAGCACGGAUACCAGCGUCCUAGUGCGCCCUUGGCAGCCGGACAUGAGGAUCACCCAUGUGUGGG [Exclusion Theophylline A GF30]”, the “apparent KD of MS2 coat protein” value (input ligand: arginine 13.2 mM) came out at 50.2 nM, the “apparent KD of MS2 coat protein” value under setting [1] came to 135 nM and the “apparent KD of MS2 coat protein” value under setting [2] amounted to 95.7 nM.

Take “ACAUGAGGAUCACCCAUGUGGCGUCUUGAUACCAGACGAGAAGUAGUCCCUUGGCAGCAAAUACGUGAGGAUCACACAUGUGCGA [cccmullin3]”: the “apparent KD of MS2 coat protein” value is 24.4 nM (input ligand: arginine 13.2 mM), 30.9 nM under setting [1] and 29 nM under setting [2].

“ACAUGAGGAUCACCCAUGUUCCUCGCCGAUACCAGUGAAGAAGUACGCCCUUGGCAGCGGAAAGAGUAUUUUGGAGAUGAGGUAC [6.Y]”: the “apparent KD of MS2 coat protein” value stood at 57 nM (input ligand: arginine 13.2 mM), 94.3 nM under setting [1] and 88.3 nM under setting [2].

Regarding “ACAUGAGGAUCACCCAUGUUUGAUGUUCCUCGAGGACCGGUACGGCCGCCACUCGAACGAGUGGCGCGCGAGCGCGCGCUCGCGC [aRa]”, the “apparent KD of MS2 coat protein” value (input ligand: arginine 13.2 mM) stood at 11.4 nM, the “apparent KD of MS2 coat protein” value under setting [1] was found to be 20.3 nM and the “apparent KD of MS2 coat protein” value under setting [3] was 14.8 nM.

On to “ACAUGAGGAUCACCCAUGUUUGUUGUUCCUCGAGGACCGGUACGGCCGCCACUCGAACGAGUGGCGCGCGCGCGCGCGCGCGCGC [aMa]”, for which the “apparent KD of MS2 coat protein” value is, setting by setting: (input ligand: arginine 13.2 mM) 11.6 nM; (input ligand: none) 13.3 nM; under setting [1], 36.4 nM; under setting [3], 16.4 nM; under setting [2], 12.6 nM.

With “ACAUUGCGCUCGGCCGCCACUGGCUUAUGAUUAUAAGCAUUAAUGAACAUGAGGAUCACCCAUGUCAGGACCGGGAGCGAACCAU [SSTryp B #7]”, the “apparent KD of MS2 coat protein” value is, setting by setting: (input ligand: arginine 13.2 mM) 13.6 nM; under setting [1], 17.7 nM; under setting [3], 14.9 nM.

Turning to “ACCGGCACCUAGGAUACCAGAUCCACAACAAACAUGAGGAUCACCCAUGUAUAAAGUGGUAUCCCUUGGCAGCCUGUGACAAUCG [theeternabot_sameState_MS2_Theo_B_19]”, the “apparent KD of MS2 coat protein” value worked out at 17 nM (input ligand: arginine 13.2 mM), 21.4 nM under setting [1] and 15.8 nM under setting [2].

Regarding “ACCUGUACGAAAAGUGCAGGACACGGAAUACGAGGACCGGUACGGCCGCCACUCGGAACCUGAGGAUCACCCUGGUAAAACCGUG [TrypAS 13 #AlternativeMS2 #Zipper #StaticStem]”, the “apparent KD of MS2 coat protein” value by setting is: (input ligand: arginine 13.2 mM) 19.9 nM; (input ligand: none) 17.8 nM; under setting [1], 22.6 nM; under setting [3], 24 nM; under setting [2], 19.5 nM.

Take “ACGAACGCACCUGAGGAUCACCCGGGUGAUACCAGCCUGGAAACAGGCCCUUGGCAGCACCUAAAAUAAAGGUAACGUUCGAAUA [TheoAX9 #MicroSwitchBubble #AlternativeMS2]”: the “apparent KD of MS2 coat protein” value stood at 116 nM (input ligand: arginine 13.2 mM); 335 nM (input ligand: none); 234 nM under setting [1]; 590 nM under setting [3]; 303 nM under setting [2].

As for “ACGACGCAUAGUGAUACCAGUAGAACAUGAGGAUCACCCAUGUCUGUUAUGUACAAAUACUGCCCUUGGCAGCACUAUGCGUCAG [SSTheo B #5]”, the “apparent KD of MS2 coat protein” value is, setting by setting: (input ligand: arginine 13.2 mM) 9.85 nM; under setting [1], 12.1 nM; under setting [2], 11.6 nM.

In the case of “ACGAGACGUCUGGAUACCAGCCCAGCGAUAAACAUGAGGAUCACCCAUGUCAAACCACCCGGCCCUUGGCAGCCACGUACCUCAC [theeternabot_sameState_MS2_Theo_B_10]”, the “apparent KD of MS2 coat protein” value came out at 15.9 nM (input ligand: arginine 13.2 mM), 19.1 nM under setting [1] and 14.9 nM under setting [2].

Consider “ACGAUAGGACUUGAGGAUCACCCAAGUGAUACCAGCCUGGAAACAGGCCCUUGGCAGCACUAAUACUCCAAUAACCUAUCGAAUA [TheoAX 14 #MicroSwitchBubble #AlternativeMS2]”, for which the “apparent KD of MS2 coat protein” value came to 78.6 nM (input ligand: arginine 13.2 mM); 232 nM (input ligand: none); 228 nM under setting [1]; 387 nM under setting [3]; 395 nM under setting [2].
